The source of these data is the NTF2 design screens of Basanta et al. (2020).

The data set in a line: protease stability score; higher = more stable; yeast display proteolysis, trypsin and chymotrypsin.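 Further: relative to predicted unfolded state with 0 unfolded-like and 1 meaning tenfold more protease.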
“SEAEESARKLTHDILRLFLTGDEDLISRYFDPNVRHHINGQEEHGMEKMVKMLNHMRFRDMHLRDVRIHIIDGVATAHVEGELHGEVNGVRRDIKSELIIITEKFNGRWRLSSISFIIE”: the protease stability score amounted to 0.256. With “SESEEDAHKASREITHMLYTGNEELWSTLADPNTRIVINGVEVHGREQVVRVIRELLRRFGVDKVHSELRTVDVQGEKVEIHSHYVQGDKSYDIILVMNKIDGRWHLQRQSIR”, the protease stability score amounted to 1.18. The result for “DEIEREAKHVVHLLIHALLTGDERLFEELVDPDARLVINGRHYHGREEVNLAMKEWRLHRFEIKDFQYEWQGNKIISRIHTREDGHVDGQRVETRSELVIFLVKINGRWRMEFVEFRFS” reads 2.42. On to “SEEKKWEDDFMEDFLRAFHTGDFHRLLELLDPHVRIEINFENRKIDLIGREEFEKWMRRVKNARFHVEHWHSINGVNFSDTVLRYGDKEQKTELIFHVYNGKVKHIDVEFH”, for which the protease stability score was determined as 2.26. Sequence “DEDRKNEEIAEKIQLRVLKTGDEDELHHLVDPNVKLHIDGREFHGMELSTHLLSRWHEKYKGLKWRLRDSQSQGDFVIIHFHVHVNGKRLRFVVIARKVDGRWVVEEIELE” registered a protease stability score of 1.4. In turn, “SEEDKTALEMFERLIHAWLTGDEDEMRRMADPHVKIDKEFENHEVQFHGREDFVRWVIEVRDRIDHLEIRNHSIRTWNGVVHVHTTLFLNYDGKLFILRTEFRLFVIDGRLREERFMLH” displayed a protease stability score of 0.282.

On to “DEEEKFSREVMELHIELWETGDEDTLTRLADPHAKFVLEWNGRNHTNHGMDVLIHMLHRLLKELGIKHTELRRKDVIGDKNHIHRRVIVNGVPTDLDLELVIIDGKLREYRIHIRIR”, for which the protease stability score was found to be 1.56. With “DEDEDTAHETWKILVHSLITGDERTMELLMDPNVQVHVGDKRHIGRERASRFHSEIRTEHVEMRTSEMQGNKVILHGRVVMRVNGKTLDHDFHLILDKIDGKWYITEIRFK”, the protease stability score was 0.517. With “SERHEKTKKVLDDFLEIRETGDEHTFNRLADPHTRVHIGDKYVHGMEDANKMLKQWEQEMGIDHIIIRHVEIRLFNGKVNHHLDEELIVNGQSLRVEVVLFIFKFDGRWVLEKLHINVH”, the protease stability score turned out to be 1.21. With “DEETKRAEELMELWLHLLRTGDEELLSELMDPHVRLDINGVELHGREALLQWHHEHRRRIDHREIRVESRRIQGEKVEQHEDIIIHVNGVEFRHREFYEVVIIDGRFKELHIEHE” the figure was 0.546; with “DEEERRLHEIAELVVHRLVTGDEDTLNKLFDPNTRFELIFNGQNFELHGREALMEWLQRRRNVREKHEVRRIEYQGDKLHVDGTLIIEYGDKRRESEVDLRIRVVNGRVHTIDLRLK”, 1.48; with “RDIEEINKRALESWKHALETGDEDTMEELLDPHVRVEDEHEMHHGRSAFHLWIKRVDHFRSLHIRETRIVGDKVDNNVEVDGTINGQDRLIEIRLVLVKFNGKWKFRSIHFK”, 1.38.

In turn, “SEDEEAAHRFLQMFLSTSHTGDEKESRELADPHVRIDIDGQKHHGRHEWVKVFRHLRIHNIEIKDYHVIDGRLRLDYKVDLEVGDKKIEHRLHIDVEKIDGRWEIQRVHLI” yielded a protease stability score of 1.58. “SEMEEHAERVWRIMLTLLLTGDEEKFNHLADPNTRLIIIIGDKELHFHGRHEISNYLHRYLREIRIDHFHEHSITVQGNWVHTDGIMLGRFDGKRHEIRVHIHLIVIDGRIKEIYLENR”: the protease stability score is 1.64. “DDHEKRLEEYMKHWFENLMTGNEERLHELADPNARFHLHFENHEVDLIGREDIIKWWREFLHRVKNIRHHLDHLEIQGEKSHLDMTLNIDGKEYRVRIIVVIVNGKIHKVIVDIR” returned a protease stability score of 2.23. With “DEREERSRHQMEWLWHLMITGDERLLEELADPHAKIEVGDKDFHGRHTLIEIIREHLQRVKNVRLEFREIEIQGDKIIIRGKLHIGDKEKDIIVIIVVVNGRLKSFKLEVH” the figure was 1.19. The sequence “DKEEEKSREFFRIFYELWLTGNEELNERLADPNVYVDINGQEIHGMHVAKNVLTRELEELRVKDIKIDDYKTQGEKAVFHGKWEGYVDGRDSMEHVTVILTVVDGKVDNMSIKFD” showed a protease stability score of 0.97.

Sequence “SEDEEVVKEWIKVVLHSMVTGDEDDVRRLFDPHTRIEINGVLFIGRKWAETLARRVDHHHIETIEYHRSHVVDGVATVDGTFRGREEVDGRKIEHHFRIEFVIMKIDGRWVTQQMRIK” registered a protease stability score of 1.56. As to “DEDEEDAHRAVQKLTEVINTGDWETFEKFADPNTRFEYGNFHIHGREVIRHFWLHEVEKFKNITIFIRHVQVINGRVESHGENRFNGKSYHFHIIFRKFNGRWHLERIHLE”, the protease stability score worked out at 1.61. The sequence “SEEEEIRLDLARLWLELVLTGDEQVYEKLADPNVRFDVNGRELHGRETWIDLLLQFKNVVKRIELKRLDVQGDFVVLDTRLRLVVNGRTETYETWIIFYVVNGRIKEVEIRTT” came in with a protease stability score of 1.31. On to “SEEEKLTREFAEMWRHTIETGDEEEMWRMADPNVRVDFDGKELHGRELFQEHFRKLGVDHFIVRRIHVQGEKLRIDGSHIYNGQHIHTELISQKVNGRWIIDQVKVH”, for which the protease stability score was 1.36. “HEDERDAEEMLRLIEEAVYTGDEDLTKYLMDPNVRIHVGDKEFHGRDFLIMRLLEIRHHRFRLELHDIRIQGNKVILDVRWRLDGEINGQRFDDTWDVIIIAEKVNGQWRVQTLIIR”: the protease stability score was found to be 2.59. For “DDRERATRELLKLLWDAMKTGDEELFYKLADPDTRMIINGRELHGMEEVSRILLELLTHMRLKNITIRDIDVQGDKVDVHGELHGEVGDKSHTFETHIIILKVNGKWVLRSYIIR”, the protease stability score was determined as 1.55. “DKEREHLKQLAEIIIHLWHTGDEEILMHLADPNTRLIIEWNGQESQYHGREEMYTIIRRIYEELGADHIHIEDHDVQGDKVIIHSRLEQGDKRVELHLIVVFVNGRLKEMHIHINDK” returned a protease stability score of 2.34.

As for “SESEEHSKKLFDTWVHSELTGDERSLLHLMDPHVKFIIDGREIHGREKASEFLVKLREHLGAEIHDYRVRDMKIQGEKVIIHSELDVQVDGVRHHERLVLIMHKIDGQWSVESVKRV”, the protease stability score was 1.08. “DEEERDAKEARDLLERSMDTGNEDLWKELLDPNMIIHIGDKEIHGMKEWIEFHKERGAETRVEFKDMRMQGNKLILRLNLKVHFDGQTYEHEVTYIVSKVDGVWLVKYIHIH” registered a protease stability score of 0.981.

“SHDELLATRLVEEVWELWLTGDEDRTAELLDPDVRFFFIVGDKTHTFHGRDKIRKLMHDLRNHWRIHHIRIERFRVQGEYSEFDVRSHGRYNGVEEETTVHLSLDVVNGKVKRIIVHIR” returned a protease stability score of 1.6. On to “DEIEELSNRLLELLRHFLQTGDEDMLRKLMDPHVRIDIDGQDFHGRESAVKLLRFWIDHMRWKDRRLRHVRIQGNFIEIDTIEHGEINGREHDLTTHIIASKVNGRWVLHSILFR”, for which the protease stability score was found to be 1.81.

For “DKDEDDERKAIDTLVDVLRTGDEHTLQRLLDPNVQLHIGDKRHHGRDEVIRVLHELHRRLGVTRVEVEIQEYHMVDGQIDLRVHLKYGDKTIESEFVLYKVNGRWFVKSLHFK”, the protease stability score stood at 2.24. As for “REEEHAMKSMIDLWIESMNTGDERSISEMADPNAKNRVGDKTFVGMELLSHILFKLVKELGVRIEDHKIHDIKVQGDKIVSHVRLHLKYGDKEEDHETIIYTRKINGRWLIERVEVI”, the protease stability score came to 1.53. The result for “DEEEELTKRFLDIMLHNLKTGNEEEISKMADPNVKLDIGDKENHGRESMSRAWHEELRRLGAKHIDVRSVELQGDKLIIRMRLEVDGRTFEVLIIIIVVDGRLKHIQFKSH” reads 0.704; that for “SEEHKMVRDVTEDWLRLLLTGDEERLAELLDPNTRFLINGKEHHGREEAIEEWRHLRVDDFRIKSIDIQYQGEKAYVDIDGRQRGKVNGKKQDRDIKIHFHILKINGRWTIHEVRVEIE”, 1.56. Sequence “SEEDHELRIASEIMIKTTRTGDERLIKELFDPNTQIDFDGQELHGWKFVRRLDEEMRMHRSETKSYERYGDKIVIDIEVDVEFNGVRTRIRVTIIARKVNGRWLNEVMIIH” had a protease stability score of 1.14. In turn, “SDEEHRREKLNRIMLEWWMTGDWKHIEHLADPNVRLEMNIGNKHLDHHGREELSRLIIELLKELGFKHSHLEHVEIQGDKFISIVRLHVNGVHFIVHIESVIINGKLTELRIEIRKV” returned a protease stability score of 1.21. The result for “TEHHERHIKLMRKIIEALLTGDEEILRKLMDPDVRWEQGDKTVIGMEAVIKFLKDVSRHIRIKDIKIERQTDINGRMFTEGHLHIQYGDKEDTQEVHIELDVINGRIKSFHVEYR” reads 1.65. Take “DDHDEELQRIVEIIFRHISTGNFDHLYKYLDPNVRMIIWIGDKNITAHGREHMSEVLHKLWKHLRIKDVDLHDVKSQGEKAIVDTHVHGIIDGKDTHIKTTLIVIIVDGRLKQMEVEVK”: the protease stability score worked out at 2.59. For the sequence “HESHNRVERILEEFFKAVETGDWRVLHELLDPHVRLDVDGRDHHGREDFSRFMKEIRVEEFRVTHLQIQGDKANVQSHRVGTYNGKRQEIRTWIHITKIDGQWYITEVTME”, the protease stability score stood at 0.544. Turning to “DEDHRDMEEFMRIFIDSLKTGDEESLARMLDPNARTKVNGVDFHGRESALEVLRRLWEEFGVDHMELKSREVEVQGNKVHIHLVVTLIQGDKHIHVRYHINTIKVDGRWLLHEINVEIR”, the protease stability score came to 1.36. Sequence “DEDERLYRIALEFLIEWHETGDEDEITRNVDPDARVDINGRNLVGREKVHRTLKELGINVLHIHRVHIVNGRLDVDGTVRFNGRTHRTRIIMLKVDGKWILDWLFIH” gave a protease stability score of 1.56. Regarding “SEDAKLTEELFREWLTIMLTGDWEQSLRRIDPHARLIIDGRHFHGREEFSKVVKELRFKDMIDRRIHVDENEVFVDVELRGVINGREVTIKTHILIVVIDGVIHSIEIRNR”, the protease stability score is 1.29. With “DEEDEDARVALEEVMRSQITGDEEKSEKLIDPHVRLEIGDKIYHGRELVVRVEHELGVKHIEPKKVEMQGDWIDLHGVIVYGDKKIHQTLHLLKFNGKWLIKEIRIK” the figure was 1.6; with “SEDEKHFREALEELHRALETGDWKRLDELLDPNTRLHINGVDLIGREMVSRFYRELVEHLGINHIELRVHHIRIIGDKVEMDSELIIDVGDKHIRIDQKLDAKKVDGRWISHVESHR”, 2.05; with “DEDEEELEKMLHKMLESLRTGDWKDITENLDPHTRFNINGVDFHGRELAHEVLHEWFERYKNIRIFLNTSRTINGRVELILRIEIGDKEEEMRILVIKVDGRWFMDTVDVRTR”, 2.13. The result for “SDLHRDIQRLLEQVLRSRETGDEDHLEKYADPHARSVFDGVEFHGWEELLRVIRHIRIRRLRLTHIEVQGDKVELDLELDGEINGQRVRVHLEIHSEKINGRWIMTEVVIE” reads 1.21. With “DEEHEWAQLVIQLFFEALHTGDEKTLHELMDPEVKVNVDGRELHGREEVMEWFEELIRQYKNAKIHLHIHRVEYVGNKVIIRGELHFRYGDKEERIDRILHVLKVDGRWLIREIEHR” the figure was 1.51; with “DELWELAFFIMKILLHLHLTGDEEMWSSYADPNVRFTLRVGDKEVKRHGMEDVEKFQTELEREIRVDHFDERRTHYYNGRARVDGHIDGLVNGRPVHFRTELHVHTIDGVVREVEIIIE”, -0.045; with “SEKDQALTEMLEIFLQVHRTGNEEDMHRLADPNARSVYNGQDLHGWEHVFNIMRRIDHIHHVTVKRVEYFDGRVSLDGHINIEIGDKSYHIDISISLRKVDGQWHIESIEFI”, 0.721.
